Measurements reported in US20230183665A1, “THERMOSTABLE GLUCOCEREBROSIDASE” (TEIKYO UNIVERSITY, priority 2020, published 2023).

Tests used:
[1] = Optimum temperature for glucocerebrosidase activity (Examples 5, 12, 20); assay type: biochemical; settings: 100 μM cerebroside B, pH 5.5, 15 minutes at each temperature, average of three tests
Protocol: The glucocerebrosidase activity of the fraction was measured as follows: a predetermined amount of sample was added to a 50 mM acetate buffer solution (pH 5.5) containing 100 μM glucosylceramide (cerebroside B), 0.1% Tween 20, and 0.05% sodium cholate, and incubated at 37° C. for 15 minutes. Subsequently, a 4-fold amount of ethanol was added to the obtained reaction solution, mixed therewith, and then centrifuged at 15000 rpm for 20 minutes. The centrifuged supernatant was subjected to high-performance liquid chromatography analysis. In the high-performance liquid chromatography analysis, the sample was injected to TSKgel ODS-120T column (4.6 mm×30 cm), and a solvent having an ethanol concentration of 83% was flowed at a flow rate of 0.8 mL/min, followed by detection in a UV detector (ultraviolet absorption wavelength: 215 nm) to thereby measure the amount of ceramide newly generated through enzymatic reaction. The amount of ceramide was determined by using, as a standard, ceramide generated from cerebroside B by imiglucerase (manufactured by Sanofi S. A.), human-derived glucocerebrosidase. The molecular weight of the generated ceramide was examined by negative LC-MS (manufactured by Agilent Technologies, Inc.) to thereby confirm that it was ceramide generated from cerebroside B (ESI-MS m/z: 564.5[M-H]^−). Glucocerebrosidase activity per mL of the enzyme solution was calculated when the amount of the enzyme that generated 1 μmol of ceramide for 1 minute in the enzymatic reaction solution was defined as 1 unit (U).
RGC1 obtained in Example 2 and imiglucerase were each added to a 50 mM acetate buffer solution (pH 5.5) containing 100 μM glucosylceramide (cerebroside B), 0.1% Tween 20, and 0.05% sodium cholate, and incubated at each temperature for 15 minutes. Subsequently, a 4-fold amount of ethanol was added to the obtained reaction solution, mixed therewith, and then centrifuged under a condition of 15000 rpm for 20 minutes. The supernatant was subjected to high-performance liquid chromatography analysis to measure the amount of ceramide generated through enzymatic reaction. The high-performance liquid chromatography analysis was carried out in the same manner as in Example 2. The amount of ceramide and enzymatic activity were also calculated in the same manner as in Example 2. A temperature that attained the highest glucocerebrosidase activity was regarded as the optimum temperature. This test was conducted three times, and an average value was determined therefrom.
The optimum temperatures for the glucocerebrosidase activity of SGC1 obtained in Example 11 and imiglucerase were confirmed by the same method as in Example 5.
Enzyme extracts derived from various plants which were obtained in accordance with Example 19, the purified rice-derived RGC1 mentioned above and the purified soybean-derived SGC1 mentioned above were each added to a 50 mM sodium acetate buffer solution (pH 5.5) containing 100 μM glucosylceramide (cerebroside B), 0.1% Tween 20, and 0.05% sodium cholate, and incubated at each temperature for 15 minutes. Subsequently, a 4-fold amount of ethanol was added to the obtained reaction solution, mixed therewith, and then centrifuged at 15000 rpm for 20 minutes. The supernatant was subjected to high-performance liquid chromatography analysis to measure the amount of ceramide generated through enzymatic reaction. The high-performance liquid chromatography analysis was carried out in the same manner as in Example 5. The amount of ceramide and enzymatic activity were also calculated in the same manner as in Example 5. As a result, a temperature that attained the highest glucocerebrosidase activity was regarded as the optimum temperature. This test was conducted three times, and an average value was determined therefrom.

[2] = Thermostability: relative residual glucocerebrosidase activity after incubation at pH 5 and pH 7 (Examples 6, 13); assay type: physicochemical; settings: 37° C.; pH 5 for 6 to 106 hours, pH 7 for 4 to 48 hours; FIGS. 1 and 2
Protocol: The glucocerebrosidase activity of the fraction was measured as follows: a predetermined amount of sample was added to a 50 mM acetate buffer solution (pH 5.5) containing 100 μM glucosylceramide (cerebroside B), 0.1% Tween 20, and 0.05% sodium cholate, and incubated at 37° C. for 15 minutes. Subsequently, a 4-fold amount of ethanol was added to the obtained reaction solution, mixed therewith, and then centrifuged at 15000 rpm for 20 minutes. The centrifuged supernatant was subjected to high-performance liquid chromatography analysis. […] The amount of ceramide was determined by using, as a standard, ceramide generated from cerebroside B by imiglucerase (manufactured by Sanofi S. A.), human-derived glucocerebrosidase. […] Glucocerebrosidase activity per mL of the enzyme solution was calculated when the amount of the enzyme that generated 1 μmol of ceramide for 1 minute in the enzymatic reaction solution was defined as 1 unit (U).
RGC1 obtained in Example 2 and imiglucerase were each incubated at pH 5 simulating lysosome (50 mM acetate buffer solution (pH 5.0) containing 0.1% Triton X-100 and 0.05% sodium cholate) at 37° C. for 6 to 106 hours or at pH 7 simulating cytoplasm (50 mM potassium phosphate buffer solution (pH 7.0) containing 0.1% Triton X-100 and 0.05% sodium cholate) at 37° C. for 4 to 48 hours. […] This test was conducted three times, and an average value was determined therefrom. […]

B1: RGC1: rice-derived glucocerebrosidase purified from rice stems; identical to Os3BGlu6, belongs to GH1; SEQ ID NO: 1 (protein)
chain: MGRIKSSSGRCSTARLEAVAVLVVVFGVASSSLRGCIAQQSGGGLTRGSFPEGFVFGTASAAYQYEGAVKEDGRGQTIWDTFAHTFGKITDFSNADVAVDQYHRFEEDIQLMADMGMDAYRFSIAWSRIYPNGVGQVNQAGIDHYNKLIDALLAKGIQPYVTLYHWDLPQALEDKYKGWLDRQIVDDFAAYAETCFREFGDRVKHWITLNEPHTVAIQGYDAGLQAPGRCSVLLHLYCKAGNSGTEPYVVAHHFILAHAAAASIYRTKYKATQNGQLGIAFDVMWFEPMSNTTIDIEAAKRAQEFQLGWFADPFFFGDYPATMRARVGERLPRFTADEAAVVKGALDFVGINHYTTYYTRHNNTNIIGTLLNNTLADTGTVSLPFKNGKPIGDRANSIWLYIVPRGMRSLMNYVKERYNSPPVYITENGMDDSNNPFISIKDALKDSKRIKYHNDYLTNLAASIKEDGCDVRGYFAWSLLDNWEWAAGYSSRFGLYFVDYKDNLKRYPKNSVQWFKALLKT
modifications: Glycine max (L.) Merr. Enrei
- Optimum temperature (° C.) ([1]; Example 5): 54.0 °C
- Optimum temperature (° C.) ([1]; Example 20): 54.0 °C
- stability (relative residual activity) compared with imiglucerase [2]: evidently superior in stability to imiglucerase
